± gives the standard deviation of the averaged measurements.
B1: library; a variant is named by its letters at N, in order (parent)
chain: GCUGUCACCGGUGUAUUACCCUAGUGGUCGACCGGUCUGAUGAGUCUNNNNNNAGACGAAACAGC

Legend:
hypoxanthine [1] = variants of: B1; test: FACS-Seq fitted mean relative fluorescence mCherry/BFP without ligand (log10 relative fluorescence); ligand: hypoxanthine (xanthine aptamer); higher = higher reporter protein expression; settings: HEK293T, ligand present: no
Method in brief: (§1)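 After lentiviral transduction, HEK293T library cells bearing an mCherry ribozyme-switch reporter and an EF1α-BFP marker were enriched. They were then held for 48 h with or without ligand and sorted by mCherry/BFP into 6 bins, and each bin's genomic DNA was PCR-amplified, barcoded and MiSeq-sequenced. Fluorescence is expressed as a normalized fitted mean: the normal mean of log10(mCherry/BFP) bin counts, scaled to five spiked-in control ribozymes.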

hypoxanthine [2] = variants of: B1; test: normalized RNA/DNA level with ligand (relative to sTRSVctl = 100) (log10 (% of sTRSVctl)); ligand: hypoxanthine (xanthine aptamer); higher = less ribozyme self-cleavage, higher mRNA level; settings: ligand concentration (+) RNA-Seq: 5 mM, HEK293T, reporter: mCherry (pCS4076), ligand present: yes
Description: (§2)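 Hammerhead (sTRSV) ribozyme switch libraries with a ligand aptamer grafted on stem I and a randomized N4-6 loop II, cloned into the 3' UTR of mCherry and transiently transfected into HEK293T cells; RNA-Seq 72 h post transfection with ligand added 1 h before transfection; RNA read count / plasmid DNA read count normalized to the non-cleaving sTRSVctl (x100), log10; sequences with >100 DNA reads. FACS-Seq: lentiviral library sorted into 6 bins after 48 h ligand, log-normal fit mean of mCherry/BFP scaled to controls. Printed sequences are partial switch sequences.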

hypoxanthine [3] = variants of: B1; test: normalized RNA/DNA level without ligand (relative to sTRSVctl = 100) (log10 (% of sTRSVctl)); ligand: hypoxanthine (xanthine aptamer); higher = less ribozyme self-cleavage, higher mRNA level; settings: HEK293T, reporter: mCherry (pCS4076), ligand present: no
Description: as §2

hypoxanthine [4] = variants of: B1; test: FACS-Seq fitted mean relative fluorescence mCherry/BFP with ligand (log10 relative fluorescence); ligand: hypoxanthine (xanthine aptamer); ligand concentration (+) FACS-Seq: 5 mM; higher = higher reporter protein expression; settings: HEK293T, ligand present: yes
Method in brief: as §1

Row | Variant | FACS-Seq fitted mean (log10) (hypoxanthine [1]) | normalized RNA/DNA level with ligand (log10) (hypoxanthine [2]) | normalized RNA/DNA level without ligand (log10) (hypoxanthine [3]) | FACS-Seq fitted mean (log10) (hypoxanthine [4])
1 | AACCUG | 0.131 ± 0.046 | 1.81 ± 0.02 | 1.38 ± 0.028 | 0.4422 ± 0.0015
2 | AACAGA | 0.273 ± 0.058 | 1.907 ± 0.0091 | 1.642 ± 0.0026 | 0.322 ± 0.091
3 | AACAGU | -0.0447 ± 0.045 | 1.87 ± 0.047 | 1.54 ± 0.018 | 0.4214 ± 0.0042
4 | AACAGG | 0.1 ± 0.034 | 1.76 ± 0.042 | 1.291 ± 0.0056 | 0.57 ± 0.031
5 | GACCGU | 0.658 ± 0.04 | 1.933 ± 0.0015 | 1.91 ± 0.0056 | 0.698 ± 0.013
6 | CAAUUA | 0.8094 ± 0.0076 | 1.89 ± 0.049 | 1.728 ± 0.0045 | 0.753 ± 0.03
7 | CAAUUU | -0.039 ± 0.03 | 1.932 ± 0.015 | 1.83 ± 0.034 | 0.406 ± 0.03
8 | CAAUUG | 0.324 ± 0.016 | 1.96 ± 0.026 | 1.894 ± 0.014 | 0.498 ± 0.044
9 | UACCGU | 0.0177 ± 0.0044 | 1.95 ± 0.08 | 1.7185 ± 0.00046 | 0.448 ± 0.028
10 | UACCGA | 0.439 ± 0.021 | 1.91 ± 0.041 | 1.75 ± 0.024 | 0.551 ± 0.044
11 | UACCGG | 0.141 ± 0.038 | 1.91 ± 0.0042 | 1.63 ± 0.038 | 0.197 ± 0.15
12 | UACAGA | 0.0904 ± 0.019 | 1.908 ± 0.018 | 1.54 ± 0.02 | 0.383 ± 0.04
13 | UACAGC | 0.821 ± 0.21 | 1.96 ± 0.019 | 1.898 ± 0.013 | 0.655 ± 0.12
14 | UACAGG | 0.231 ± 0.044 | 1.838 ± 0.014 | 1.41 ± 0.035 | 0.661 ± 0.032
15 | AAAGGA | 0.0795 ± 0.041 | 1.9 ± 0.031 | 1.58 ± 0.037 | -0.105 ± 0.2
16 | AAAGGU | 0.195 ± 0.021 | 1.9 ± 0.054 | 1.61 ± 0.053 | 0.526 ± 0.025
17 | AAAGGG | 0.0328 ± 0.0085 | 1.753 ± 0.0035 | 1.32 ± 0.073 | 0.292 ± 0.084
18 | AAAGGC | -0.66 ± 0.0082 | 1.91 ± 0.035 | 1.781 ± 0.0092 | -0.684 ± 0.085
19 | GAAGAC | 0.249 ± 0.014 | 1.921 ± 0.0023 | 1.63 ± 0.026 | 0.505 ± 0.069
20 | GAAGAG | -0.121 ± 0.02 | 1.79 ± 0.022 | 1.27 ± 0.032 | 0.521 ± 0.037
21 | GAAGAA | 0.4206 ± 0.0035 | 1.9256 ± 0.00044 | 1.677 ± 0.013 | 0.5245 ± 0.001
22 | GACCUG | 0.408 ± 0.074 | 1.887 ± 0.0022 | 1.52 ± 0.018 | 0.608 ± 0.095
23 | GAACUU | 0.731 ± 0.013 | 1.91 ± 0.11 | 1.8654 ± 0.0014 | 0.616 ± 0.025
24 | GAACUA | 0.557 ± 0.024 | 1.873 ± 0.012 | 1.815 ± 0.0032 | 0.182 ± 0.072

Row | Variant | FACS-Seq fitted mean (log10) (hypoxanthine [1]) | normalized RNA/DNA level with ligand (log10) (hypoxanthine [2]) | normalized RNA/DNA level without ligand (log10) (hypoxanthine [3]) | FACS-Seq fitted mean (log10) (hypoxanthine [4])
25 | UAAGCG | -0.442 ± 0.031 | 1.909 ± 0.0091 | 1.6 ± 0.024 | 0.233 ± 0.018
26 | AAAUAA | 0.684 ± 0.016 | 1.89 ± 0.024 | 1.74 ± 0.025 | 0.775 ± 0.11
27 | AAAUAU | -0.168 ± 0.02 | 1.924 ± 0.012 | 1.763 ± 0.0044 | -0.451 ± 0.1
28 | AAAUAG | 0.258 ± 0.041 | 1.842 ± 0.0027 | 1.44 ± 0.018 | 0.487 ± 0.016
29 | CAAGAA | 0.513 ± 0.021 | 1.89 ± 0.03 | 1.7 ± 0.044 | 0.45 ± 0.091
30 | CAAGAG | 0.342 ± 0.095 | 1.86 ± 0.036 | 1.57 ± 0.03 | 0.473 ± 0.018
31 | UACACU | -0.295 ± 0.069 | 1.911 ± 0.006 | 1.9 ± 0.0044 | -0.34 ± 0.0052
32 | GACCCC | 0.0047 ± 0.072 | 1.94 ± 0.019 | 1.87 ± 0.038 | 0.161 ± 0.06
33 | GACCCU | -0.308 ± 0.41 | 1.99 ± 0.023 | 1.972 ± 0.0096 | 0.1808 ± 0.00023
34 | GACCCG | 0.0296 ± 0.027 | 1.89 ± 0.022 | 1.632 ± 0.016 | 0.292 ± 0.047
35 | UAAUGG | 0.218 ± 0.021 | 1.87 ± 0.044 | 1.53 ± 0.052 | 0.457 ± 0.038
36 | AACCCG | 0.577 ± 0.077 | 1.84 ± 0.088 | 1.378 ± 0.013 | 0.751 ± 0.043
37 | AACCCA | 0.217 ± 0.063 | 1.92 ± 0.022 | 1.85 ± 0.042 | 0.245 ± 0.0026
38 | UAAUUC | 0.569 ± 0.0061 | 1.96 ± 0.029 | 1.91 ± 0.0049 | 0.671 ± 0.032
39 | UAAUUU | -0.253 ± 0.046 | 1.98 ± 0.034 | 1.892 ± 0.01 | -0.129 ± 0.063
40 | UAAUUA | 0.737 ± 0.055 | 1.92 ± 0.081 | 1.87 ± 0.032 | 0.65 ± 0.063
41 | AAAUUG | 0.0713 ± 0.0046 | 1.88 ± 0.035 | 1.54 ± 0.049 | 0.431 ± 0.0093
42 | AAAUUU | 0.596 ± 0.082 | 1.95 ± 0.043 | 1.9 ± 0.034 | 0.577 ± 0.029
43 | AAAUUA | -0.311 ± 0.019 | 1.899 ± 0.016 | 1.83 ± 0.055 | -0.0839 ± 0.038
44 | AAAUUC | 0.489 ± 0.043 | 1.95 ± 0.041 | 1.87 ± 0.033 | 0.603 ± 0.015
45 | AACAUG | 0.137 ± 0.021 | 1.861 ± 0.0051 | 1.44 ± 0.042 | 0.447 ± 0.013
46 | AACAUA | 0.665 ± 0.084 | 1.89 ± 0.021 | 1.801 ± 0.018 | 0.63 ± 0.035
47 | AACACG | 0.0502 ± 0.00077 | 1.85 ± 0.046 | 1.4 ± 0.045 | 0.412 ± 0.037
48 | AACACA | 0.00339 ± 0.015 | 1.9 ± 0.055 | 1.83 ± 0.023 | -0.0536 ± 0.037

Row | Variant | FACS-Seq fitted mean (log10) (hypoxanthine [1]) | normalized RNA/DNA level with ligand (log10) (hypoxanthine [2]) | normalized RNA/DNA level without ligand (log10) (hypoxanthine [3]) | FACS-Seq fitted mean (log10) (hypoxanthine [4])
49 | AACACC | 0.754 ± 0.017 | 1.9322 ± 0.00016 | 1.9 ± 0.02 | 0.806 ± 0.073
50 | GAAUAC | 0.23 ± 0.012 | 1.89 ± 0.044 | 1.713 ± 0.0067 | 0.499 ± 0.062
51 | GAAUAG | 0.0583 ± 0.0095 | 1.786 ± 0.011 | 1.35 ± 0.026 | 0.459 ± 0.05
52 | GAAUAA | 0.317 ± 0.056 | 1.91 ± 0.04 | 1.78 ± 0.0034 | 0.497 ± 0.03
53 | UAAUAG | 0.548 ± 0.036 | 1.874 ± 0.0076 | 1.631 ± 0.014 | 0.666 ± 0.019
54 | UAAUAA | 0.267 ± 0.015 | 1.902 ± 0.012 | 1.78 ± 0.023 | 0.321 ± 0.019
55 | UAAUAU | 0.353 ± 0.012 | 1.91 ± 0.061 | 1.796 ± 0.005 | 0.558 ± 0.096
56 | UACCCC | 0.5672 ± 0.0022 | 1.95 ± 0.062 | 1.9 ± 0.064 | 0.523 ± 0.047
57 | UAAGAG | 0.312 ± 0.071 | 1.833 ± 0.013 | 1.528 ± 0.011 | 0.422 ± 0.032
58 | UAAGAC | 0.419 ± 0.024 | 1.87 ± 0.05 | 1.82 ± 0.035 | 0.507 ± 0.024
59 | UAAGAA | 0.349 ± 0.3 | 1.91 ± 0.025 | 1.68 ± 0.011 | 0.395 ± 0.051
60 | GACAGU | -0.268 ± 0.11 | 1.926 ± 0.0025 | 1.8 ± 0.045 | 0.146 ± 0.025
61 | GACAGG | -0.206 ± 0.16 | 1.765 ± 0.012 | 1.27 ± 0.033 | -0.557 ± 0.034
62 | GACAGC | 0.379 ± 0.028 | 1.965 ± 0.007 | 1.74 ± 0.084 | 0.554 ± 0.047
63 | GACAGA | 0.4408 ± 0.00062 | 1.91 ± 0.038 | 1.65 ± 0.035 | 0.594 ± 0.088
64 | CAACUU | 0.257 ± 0.007 | 1.95 ± 0.043 | 1.873 ± 0.0032 | 0.377 ± 0.026
65 | CAACUA | 0.494 ± 0.084 | 1.93 ± 0.029 | 1.709 ± 0.011 | 0.695 ± 0.016
66 | GAAUGC | 0.275 ± 0.016 | 1.863 ± 0.014 | 1.53 ± 0.03 | 0.577 ± 0.011
67 | GAAUGG | -0.206 ± 0.053 | 1.76 ± 0.037 | 1.216 ± 0.012 | 0.417 ± 0.012
68 | GAAUGA | 0.481 ± 0.081 | 1.922 ± 0.0024 | 1.66 ± 0.057 | 0.688 ± 0.028
69 | GAAUGU | 0.27 ± 0.024 | 1.91 ± 0.022 | 1.718 ± 0.0052 | 0.381 ± 0.07
70 | AAAUCG | 0.0899 ± 0.022 | 1.86 ± 0.04 | 1.36 ± 0.014 | 0.509 ± 0.04
71 | AAAUCA | 0.598 ± 0.077 | 1.927 ± 0.0036 | 1.8121 ± 0.0018 | 0.629 ± 0.082
72 | CACAUA | 0.738 ± 0.084 | 1.91 ± 0.07 | 1.73 ± 0.047 | 0.656 ± 0.076

From the supplement of paper PMC6757056
